# Results reported in doi:10.1101/2021.01.20.427433, “Microarray screening reveals a non-conventional SUMO-binding mode linked to DNA repair by non-homologous end-joining” (bioRxiv, 2021).
# Molecular target: T1, XLF-6xHis (human, UniProt Q9H9Q4 1-299)
# T1 construct: XLF, human, amplified from pGEX2TKP-XLF; source: E. coli (pHAT5), purified (His-trap, HiTrap Q)
# Test: BLI; XLF-6xHis and XRCC4^1-164 wildtype or mutants
# Conditions: both partners purified
# T1 sequence (Q9H9Q4 whole entry): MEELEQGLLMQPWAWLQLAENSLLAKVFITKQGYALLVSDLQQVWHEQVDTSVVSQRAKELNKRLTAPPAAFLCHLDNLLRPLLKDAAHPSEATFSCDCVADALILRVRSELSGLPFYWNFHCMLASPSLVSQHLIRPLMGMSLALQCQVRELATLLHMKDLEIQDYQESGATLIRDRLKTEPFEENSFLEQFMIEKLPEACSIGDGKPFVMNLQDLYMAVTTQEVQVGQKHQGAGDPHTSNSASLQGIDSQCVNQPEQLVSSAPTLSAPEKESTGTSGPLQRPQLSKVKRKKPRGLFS
binder,measurement,value
"6xHis-XRCC4^1-164 (C-to-A), wildtype for the SIMs (domain or fragment, human, UniProt Q13426 1-164, looked up, 15N-labelled where it is the observed protein in NMR, The three cysteines are printed for the 1-180 construct amplified from this vector; also called XRCC4 head domain; source: E. coli BL21-CodonPlus (DE3)-RIL (pET-28a), purified; isotope-labelled in minimal medium for NMR) MERKISRIHLVSEPSITHFLQVSWEKTLESGFVITLTDGHSAWTGTVSESEISQEADDMAMEKGKYVGELRKALLSGAGPADVYTFNFSKESAYFFFEKNLKDVSFRLGSFNLEKVENPAEVIRELIAYALDTIAENQAKNEHLQKENERLLRDWNDVQGRFEK",binding result,binds
